Source: patent US20190225650A1, “PEPTIDOMIMETIC MACROCYCLES AND USE THEREOF IN REGULATING HIF1ALPHA” (AILERON THERAPEUTICS, INC., priority 2013, published 2019)
Bridge positions count the residues as written; N and C are the ends. Square brackets hold non-standard residues; d marks the D form. Ala(3-Me-diazirin-3-yl) = CC1(C[C@H](N)C(=O)O)N=N1; S5 = C=CCCC[C@](C)(N)C(=O)O; Nle = CCCC[C@H](N)C(=O)O; Dap = NC[C@H](N)C(=O)O

Molecular target: T1, His6-tagged p300 (AA 323-423) (UniProt Q09472 323-423)
T1 construct: range 323-423; also called p300-CH; not shown: His6 tag
T1 sequence (Q09472 323-423 limits assumed): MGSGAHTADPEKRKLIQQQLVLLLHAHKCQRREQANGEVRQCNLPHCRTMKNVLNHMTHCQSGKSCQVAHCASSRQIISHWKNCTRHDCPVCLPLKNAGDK
Experiment: TR-FRET HIF1a/p300 displacement; grade = IC50 >700 nM
How it was run: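 Peptides competed with HIF1α C-terminal transactivation domain for His6-p300-CH (complex 300 nM final) during 1 h at RT in 20 mM HEPES pH 7.4, 150 mM NaCl, 7.5 mM CHAPS, 1 mM DTT. Anti-Flag-K (0.5 μM) and anti-His-D2 (4 nM) were added for 2 h. IC50 was derived from the TR-FRET ratio by one-site fit.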

| Binder | IC50 [nM] |
| --- | --- |
| Ac-FIDEEVLM[S5]LVI[S5]MGLDRIKELPELW-NH2 (staple 9-13; SMILES CC[C@H](C)[C@H](NC(=O)[C@H](Cc1ccccc1)NC(C)=O)C(=O)N[C@@H](CC(=O)O)C(=O)N[C@@H](CCC(=O)O)C(=O)N[C@@H](CCC(=O)O)C(=O)N[C@H](C(=O)N[C@@H](CC(C)C)C(=O)N[C@@H](CCSC)C(=O)N[C@@]1(C)CCCC=CCCC[C@@](C)(C(=O)N[C@@H](CCSC)C(=O)NCC(=O)N[C@@H](CC(C)C)C(=O)N[C@@H](CC(=O)O)C(=O)N[C@@H](CCCNC(=N)N)C(=O)N[C@H](C(=O)N[C@@H](CCCCN)C(=O)N[C@@H](CCC(=O)O)C(=O)N[C@@H](CC(C)C)C(=O)N2CCC[C@H]2C(=O)N[C@@H](CCC(=O)O)C(=O)N[C@@H](CC(C)C)C(=O)N[C@@H](Cc2c[nH]c3ccccc23)C(N)=O)[C@@H](C)CC)NC(=O)[C@H]([C@@H](C)CC)NC(=O)[C@H](C(C)C)NC(=O)[C@H](CC(C)C)NC1=O)C(C)C) [SP-90] | > 700 |
| Ac-FIDEEVLS[S5]LVI[S5][Nle]ALDRI-NH2 (staple 9-13; SMILES CCCC[C@H](NC(=O)[C@]1(C)CCCC=CCCC[C@](C)(NC(=O)[C@H](CO)NC(=O)[C@H](CC(C)C)NC(=O)[C@@H](NC(=O)[C@H](CCC(=O)O)NC(=O)[C@H](CCC(=O)O)NC(=O)[C@H](CC(=O)O)NC(=O)[C@@H](NC(=O)[C@H](Cc2ccccc2)NC(C)=O)[C@@H](C)CC)C(C)C)C(=O)N[C@@H](CC(C)C)C(=O)N[C@@H](C(C)C)C(=O)N[C@@H]([C@@H](C)CC)C(=O)N1)C(=O)N[C@@H](C)C(=O)N[C@@H](CC(C)C)C(=O)N[C@@H](CC(=O)O)C(=O)N[C@@H](CCCNC(=N)N)C(=O)N[C@H](C(N)=O)[C@@H](C)CC) [SP-50] | > 700 |
| Ac-FI[Dap]EEVL[Nle][S5]LVI[S5][Nle]ALDRI-NH2 (staple 9-13; SMILES CCCC[C@H](NC(=O)[C@H](CC(C)C)NC(=O)[C@@H](NC(=O)[C@H](CCC(=O)O)NC(=O)[C@H](CCC(=O)O)NC(=O)[C@H](CN)NC(=O)[C@@H](NC(=O)[C@H](Cc1ccccc1)NC(C)=O)[C@@H](C)CC)C(C)C)C(=O)N[C@@]1(C)CCCC=CCCC[C@@](C)(C(=O)N[C@@H](CCCC)C(=O)N[C@@H](C)C(=O)N[C@@H](CC(C)C)C(=O)N[C@@H](CC(=O)O)C(=O)N[C@@H](CCCNC(=N)N)C(=O)N[C@H](C(N)=O)[C@@H](C)CC)NC(=O)[C@H]([C@@H](C)CC)NC(=O)[C@H](C(C)C)NC(=O)[C@H](CC(C)C)NC1=O) [SP-62] | > 700 |
| Ac-FIDEEVLA[S5]LVI[S5]AALD-NH2 (staple 9-13; SMILES CC[C@H](C)[C@H](NC(=O)[C@H](Cc1ccccc1)NC(C)=O)C(=O)N[C@@H](CC(=O)O)C(=O)N[C@@H](CCC(=O)O)C(=O)N[C@@H](CCC(=O)O)C(=O)N[C@H](C(=O)N[C@@H](CC(C)C)C(=O)N[C@@H](C)C(=O)N[C@@]1(C)CCCC=CCCC[C@@](C)(C(=O)N[C@@H](C)C(=O)N[C@@H](C)C(=O)N[C@@H](CC(C)C)C(=O)N[C@@H](CC(=O)O)C(N)=O)NC(=O)[C@H]([C@@H](C)CC)NC(=O)[C@H](C(C)C)NC(=O)[C@H](CC(C)C)NC1=O)C(C)C) [SP-60] | > 700 |
| Ac-FIDEEVLM[S5]LVI[S5]MGLDRIKELP-NH2 (staple 9-13; SMILES CC[C@H](C)[C@H](NC(=O)[C@H](Cc1ccccc1)NC(C)=O)C(=O)N[C@@H](CC(=O)O)C(=O)N[C@@H](CCC(=O)O)C(=O)N[C@@H](CCC(=O)O)C(=O)N[C@H](C(=O)N[C@@H](CC(C)C)C(=O)N[C@@H](CCSC)C(=O)N[C@@]1(C)CCCC=CCCC[C@@](C)(C(=O)N[C@@H](CCSC)C(=O)NCC(=O)N[C@@H](CC(C)C)C(=O)N[C@@H](CC(=O)O)C(=O)N[C@@H](CCCNC(=N)N)C(=O)N[C@H](C(=O)N[C@@H](CCCCN)C(=O)N[C@@H](CCC(=O)O)C(=O)N[C@@H](CC(C)C)C(=O)N2CCC[C@H]2C(N)=O)[C@@H](C)CC)NC(=O)[C@H]([C@@H](C)CC)NC(=O)[C@H](C(C)C)NC(=O)[C@H](CC(C)C)NC1=O)C(C)C) [SP-93] | > 700 |
| Ac-FIDEEVLM[S5]LVI[S5]MGLDRI-NH2 (staple 9-13; SMILES CC[C@H](C)[C@H](NC(=O)[C@H](CCCNC(=N)N)NC(=O)[C@H](CC(=O)O)NC(=O)[C@H](CC(C)C)NC(=O)CNC(=O)[C@H](CCSC)NC(=O)[C@]1(C)CCCC=CCCC[C@](C)(NC(=O)[C@H](CCSC)NC(=O)[C@H](CC(C)C)NC(=O)[C@@H](NC(=O)[C@H](CCC(=O)O)NC(=O)[C@H](CCC(=O)O)NC(=O)[C@H](CC(=O)O)NC(=O)[C@@H](NC(=O)[C@H](Cc2ccccc2)NC(C)=O)[C@@H](C)CC)C(C)C)C(=O)N[C@@H](CC(C)C)C(=O)N[C@@H](C(C)C)C(=O)N[C@@H]([C@@H](C)CC)C(=O)N1)C(N)=O) [SP-97] | > 700 |
| Ac-FIDE[Dap]VL[Nle][S5]LVI[S5][Nle]ALDRI-NH2 (staple 9-13; SMILES CCCC[C@H](NC(=O)[C@H](CC(C)C)NC(=O)[C@@H](NC(=O)[C@H](CN)NC(=O)[C@H](CCC(=O)O)NC(=O)[C@H](CC(=O)O)NC(=O)[C@@H](NC(=O)[C@H](Cc1ccccc1)NC(C)=O)[C@@H](C)CC)C(C)C)C(=O)N[C@@]1(C)CCCC=CCCC[C@@](C)(C(=O)N[C@@H](CCCC)C(=O)N[C@@H](C)C(=O)N[C@@H](CC(C)C)C(=O)N[C@@H](CC(=O)O)C(=O)N[C@@H](CCCNC(=N)N)C(=O)N[C@H](C(N)=O)[C@@H](C)CC)NC(=O)[C@H]([C@@H](C)CC)NC(=O)[C@H](C(C)C)NC(=O)[C@H](CC(C)C)NC1=O) [SP-63] | > 700 |
| Ac-FIDEQVLA[S5]LVI[S5]AALDRI-NH2 (staple 9-13; SMILES CC[C@H](C)[C@H](NC(=O)[C@H](CCCNC(=N)N)NC(=O)[C@H](CC(=O)O)NC(=O)[C@H](CC(C)C)NC(=O)[C@H](C)NC(=O)[C@H](C)NC(=O)[C@]1(C)CCCC=CCCC[C@](C)(NC(=O)[C@H](C)NC(=O)[C@H](CC(C)C)NC(=O)[C@@H](NC(=O)[C@H](CCC(N)=O)NC(=O)[C@H](CCC(=O)O)NC(=O)[C@H](CC(=O)O)NC(=O)[C@@H](NC(=O)[C@H](Cc2ccccc2)NC(C)=O)[C@@H](C)CC)C(C)C)C(=O)N[C@@H](CC(C)C)C(=O)N[C@@H](C(C)C)C(=O)N[C@@H]([C@@H](C)CC)C(=O)N1)C(N)=O) [SP-70] | > 700 |

More lines, now with the values ahead:

| IC50 [nM] | Binder |
| --- | --- |
| > 700 | Ac-FIDEE[Dap]L[Nle][S5]LVI[S5][Nle]ALDRI-NH2 (staple 9-13; SMILES CCCC[C@H](NC(=O)[C@H](CC(C)C)NC(=O)[C@H](CN)NC(=O)[C@H](CCC(=O)O)NC(=O)[C@H](CCC(=O)O)NC(=O)[C@H](CC(=O)O)NC(=O)[C@@H](NC(=O)[C@H](Cc1ccccc1)NC(C)=O)[C@@H](C)CC)C(=O)N[C@@]1(C)CCCC=CCCC[C@@](C)(C(=O)N[C@@H](CCCC)C(=O)N[C@@H](C)C(=O)N[C@@H](CC(C)C)C(=O)N[C@@H](CC(=O)O)C(=O)N[C@@H](CCCNC(=N)N)C(=O)N[C@H](C(N)=O)[C@@H](C)CC)NC(=O)[C@H]([C@@H](C)CC)NC(=O)[C@H](C(C)C)NC(=O)[C@H](CC(C)C)NC1=O) [SP-64] |
| > 700 | Ac-FIDEEV[Ala(3-Me-diazirin-3-yl)][Nle][S5]LVI[S5][Nle]ALDRI-NH2 (staple 9-13) [SP-71] |
| > 700 | Ac-FIDEE[S5]LMS[S5]VIEMGLDRIKELPELWL-NH2 (staple 6-10; SMILES CC[C@H](C)[C@H](NC(=O)[C@H](Cc1ccccc1)NC(C)=O)C(=O)N[C@@H](CC(=O)O)C(=O)N[C@@H](CCC(=O)O)C(=O)N[C@@H](CCC(=O)O)C(=O)N[C@@]1(C)CCCC=CCCC[C@@](C)(C(=O)N[C@H](C(=O)N[C@H](C(=O)N[C@@H](CCC(=O)O)C(=O)N[C@@H](CCSC)C(=O)NCC(=O)N[C@@H](CC(C)C)C(=O)N[C@@H](CC(=O)O)C(=O)N[C@@H](CCCNC(=N)N)C(=O)N[C@H](C(=O)N[C@@H](CCCCN)C(=O)N[C@@H](CCC(=O)O)C(=O)N[C@@H](CC(C)C)C(=O)N2CCC[C@H]2C(=O)N[C@@H](CCC(=O)O)C(=O)N[C@@H](CC(C)C)C(=O)N[C@@H](Cc2c[nH]c3ccccc23)C(=O)N[C@@H](CC(C)C)C(N)=O)[C@@H](C)CC)[C@@H](C)CC)C(C)C)NC(=O)[C@H](CO)NC(=O)[C@H](CCSC)NC(=O)[C@H](CC(C)C)NC1=O) [SP-77] |
| > 700 | Ac-FIDEEVL[Nle][S5]LVI[S5][Nle]ALD[Dap]-NH2 (staple 9-13; SMILES CCCC[C@H](NC(=O)[C@H](CC(C)C)NC(=O)[C@@H](NC(=O)[C@H](CCC(=O)O)NC(=O)[C@H](CCC(=O)O)NC(=O)[C@H](CC(=O)O)NC(=O)[C@@H](NC(=O)[C@H](Cc1ccccc1)NC(C)=O)[C@@H](C)CC)C(C)C)C(=O)N[C@@]1(C)CCCC=CCCC[C@@](C)(C(=O)N[C@@H](CCCC)C(=O)N[C@@H](C)C(=O)N[C@@H](CC(C)C)C(=O)N[C@@H](CC(=O)O)C(=O)N[C@@H](CN)C(N)=O)NC(=O)[C@H]([C@@H](C)CC)NC(=O)[C@H](C(C)C)NC(=O)[C@H](CC(C)C)NC1=O) [SP-68] |
